Assay results: patent US20230302104

B1: purified human neutrophil elastase (ELA2) (protein)
chain: IVGGRRARPHAWPFMVSLQLRGGHFCGATLIAPNFVMSAAHCVANVNVRAVRVVLGAHNLSRREPTRQVFAVQRIFENGYDPVNLLNDIVILQLNGSATINANVQVAQLPAQGRRLGNGVQCLAMGWGLLGRNRGIASVLQELNVTVVTSLCRRSNVCTLVRGRQAGVCFGDSGSPLVCNGLIHGIASFVRGGCASGLYPDAFAPVAQFVNWIDSIIQ
B2: TMPRSS2 recombinant protein (creative biomart) (protein)
chain: WKFMGSKCSNSGIECDSSGTCINPSNWCDGVSHCPGGEDENRCVRLYGPNFILQVYSSQRKSWHPVCQDDWNENYGRAACRDMGYKNNFYSSQGIVDDSGSTSFMKLNTSAGNVDIYKKLYHSDACSSKAVVSLRCIACGVNLNSSRQSRIVGGESALPGAWPWQVSLHVQNVHVCGGSIITPEWIVTAAHCVEKPLNNPWHWTAFAGILRQSFMFYGAGYQVEKVISHPNYDSKTKNNDIALMKLQKPLTFNDLVKPVCLPNPGMMLQPEQLCWISGWGATEEKGKTSEVLNAAKVLLIETQRCNSRYVYDNLITPAMICAGFLQGNVDSCQGDSGGPLVTSKNNIWWLIGDTSWGSGCAKAYRPGVYGNVMVFTDWIYRQMRADG

How the values were obtained:
[1] = molecular target: rhAAT (recombinant alpha1-antitrypsin, preparations not specified per panel)
[2] = molecular target: AAT (alpha1-antitrypsin; preparation not stated in Example 15), P01009
AAT (alpha1-antitrypsin; preparation not stated in Example 15), P01009, sequence (P01009 whole entry, looked up): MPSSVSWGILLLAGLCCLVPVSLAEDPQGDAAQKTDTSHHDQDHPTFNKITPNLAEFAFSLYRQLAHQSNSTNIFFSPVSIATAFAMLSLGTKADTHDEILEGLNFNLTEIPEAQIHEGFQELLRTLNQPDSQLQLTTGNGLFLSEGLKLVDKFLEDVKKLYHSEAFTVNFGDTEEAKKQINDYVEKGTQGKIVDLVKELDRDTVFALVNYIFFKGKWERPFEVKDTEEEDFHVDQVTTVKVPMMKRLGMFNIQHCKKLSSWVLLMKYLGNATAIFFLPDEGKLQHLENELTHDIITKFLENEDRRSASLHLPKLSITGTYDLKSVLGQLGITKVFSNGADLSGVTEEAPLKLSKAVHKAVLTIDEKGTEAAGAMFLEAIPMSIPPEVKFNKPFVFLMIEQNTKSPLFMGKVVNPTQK

| Protein | neutrophil elastase protease activity, MeOSuc-AAPV-pNA substrate assay (Vmax, % of untreated); AAT at 1 nM and 10 nM [1] | TMPRSS2 protease activity (cleavage of Boc-QAR-AMC peptide, fluorescence, Vmax) [2] |
| --- | --- | --- |
| B1 | AAT and rhAAT inhibits neutrophil elastase protease activity |  |
| B2 |  | AAT inhibits TMPRSS2 protease activity |
